Assay results from article PMC4330389, “Domain organization within the nuclear export factor Mex67:Mtr2 generates an extended mRNA binding surface”.
Substitutions are numbered along the chain they refer to.

T1: Mex67ΔUBA;Mtr2 (Saccharomyces cerevisiae;Saccharomyces …, UniProt Q99257;P34232 1-487;1-184, |)
T1 sequence 1: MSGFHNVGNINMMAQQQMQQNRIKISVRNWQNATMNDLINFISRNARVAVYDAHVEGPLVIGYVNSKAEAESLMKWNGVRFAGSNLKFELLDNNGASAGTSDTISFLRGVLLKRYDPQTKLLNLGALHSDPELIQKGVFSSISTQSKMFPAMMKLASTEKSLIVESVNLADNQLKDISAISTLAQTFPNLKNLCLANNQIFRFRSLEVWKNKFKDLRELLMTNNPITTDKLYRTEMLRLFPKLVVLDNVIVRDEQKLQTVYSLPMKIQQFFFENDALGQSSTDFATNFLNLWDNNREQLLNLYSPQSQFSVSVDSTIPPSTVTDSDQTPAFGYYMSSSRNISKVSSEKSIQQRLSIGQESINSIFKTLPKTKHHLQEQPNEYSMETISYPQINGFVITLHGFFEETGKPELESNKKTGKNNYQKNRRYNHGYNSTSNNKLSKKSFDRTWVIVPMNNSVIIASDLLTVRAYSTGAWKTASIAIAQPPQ
T1 sequence 2: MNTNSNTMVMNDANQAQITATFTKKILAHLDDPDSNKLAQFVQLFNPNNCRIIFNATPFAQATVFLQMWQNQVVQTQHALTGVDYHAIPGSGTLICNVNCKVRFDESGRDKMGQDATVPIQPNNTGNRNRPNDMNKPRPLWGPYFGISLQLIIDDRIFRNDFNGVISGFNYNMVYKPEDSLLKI

T2: Mex67ΔUBA L263Y+M265Y;Mtr2 (Saccharomyces cerevisiae;Saccharomyces …, UniProt Q99257;P34232 1-487;1-184, L263Y;M265Y|)
T2 sequence 1: T1 sequence 1 with L263Y, M265Y
T2 sequence 2: T1 sequence 2

T3: Mex67RRM-LRR (Saccharomyces cerevisiae, UniProt Q99257 2-262)
T3 sequence: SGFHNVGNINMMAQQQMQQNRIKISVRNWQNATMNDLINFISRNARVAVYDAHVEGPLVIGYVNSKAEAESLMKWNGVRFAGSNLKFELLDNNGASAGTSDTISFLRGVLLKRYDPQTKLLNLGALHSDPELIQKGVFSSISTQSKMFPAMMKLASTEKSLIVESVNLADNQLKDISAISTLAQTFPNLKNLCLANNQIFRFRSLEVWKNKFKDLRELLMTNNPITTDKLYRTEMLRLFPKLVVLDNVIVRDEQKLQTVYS

T4: Mex67LRR-NTF2L;Mtr2 (Saccharomyces cerevisiae;Saccharomyces …, UniProt Q99257;P34232 101-487;1-184, |)
T4 sequence 1: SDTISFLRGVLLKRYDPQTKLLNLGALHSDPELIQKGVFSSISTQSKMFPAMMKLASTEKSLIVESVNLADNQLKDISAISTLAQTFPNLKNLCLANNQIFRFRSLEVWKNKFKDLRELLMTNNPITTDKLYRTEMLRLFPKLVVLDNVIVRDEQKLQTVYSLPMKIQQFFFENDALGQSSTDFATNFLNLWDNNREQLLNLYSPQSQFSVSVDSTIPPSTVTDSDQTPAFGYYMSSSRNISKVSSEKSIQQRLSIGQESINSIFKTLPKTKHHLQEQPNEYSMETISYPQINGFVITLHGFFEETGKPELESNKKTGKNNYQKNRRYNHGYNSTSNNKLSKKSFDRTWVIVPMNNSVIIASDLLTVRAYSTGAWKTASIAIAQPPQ
T4 sequence 2: T1 sequence 2

T5: Mex67ΔUBA L263D+M265D;Mtr2 (Saccharomyces cerevisiae;Saccharomyces …, UniProt Q99257;P34232 1-487;1-184, L263D;M265D|)
T5 sequence 1: T1 sequence 1 with L263D, M265D
T5 sequence 2: T1 sequence 2

T6: Mex67NTF2L;Mtr2 (Saccharomyces cerevisiae;Saccharomyces …, UniProt Q99257;P34232 264-487;1-184, |)
T6 sequence 1: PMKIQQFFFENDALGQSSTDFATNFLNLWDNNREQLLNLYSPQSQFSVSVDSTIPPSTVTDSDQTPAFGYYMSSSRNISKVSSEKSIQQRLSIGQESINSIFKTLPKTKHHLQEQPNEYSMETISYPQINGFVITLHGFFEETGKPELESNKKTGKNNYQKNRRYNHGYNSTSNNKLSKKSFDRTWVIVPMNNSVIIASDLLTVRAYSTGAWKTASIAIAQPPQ
T6 sequence 2: T1 sequence 2

T7: Mex67 (full length):Mtr2;Mtr2 (Saccharomyces cerevisiae;Saccharomyces …, UniProt Q99257;P34232 1-599;1-184, |)
T7 sequence 1: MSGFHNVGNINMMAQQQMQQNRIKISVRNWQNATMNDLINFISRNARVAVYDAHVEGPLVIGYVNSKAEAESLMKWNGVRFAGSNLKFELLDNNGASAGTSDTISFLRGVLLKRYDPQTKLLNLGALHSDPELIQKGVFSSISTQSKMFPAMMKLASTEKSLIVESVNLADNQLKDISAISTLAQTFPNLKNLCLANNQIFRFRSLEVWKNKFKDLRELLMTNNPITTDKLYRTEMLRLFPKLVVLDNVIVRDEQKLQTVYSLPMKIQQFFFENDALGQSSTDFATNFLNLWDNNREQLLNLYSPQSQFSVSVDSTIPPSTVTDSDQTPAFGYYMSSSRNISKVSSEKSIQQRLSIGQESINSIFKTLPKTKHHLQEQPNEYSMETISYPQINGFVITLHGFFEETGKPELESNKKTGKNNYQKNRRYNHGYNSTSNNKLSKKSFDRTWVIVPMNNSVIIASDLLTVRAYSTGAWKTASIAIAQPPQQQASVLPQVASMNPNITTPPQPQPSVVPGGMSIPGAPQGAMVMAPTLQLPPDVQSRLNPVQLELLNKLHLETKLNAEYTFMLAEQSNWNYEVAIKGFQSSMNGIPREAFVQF
T7 sequence 2: T1 sequence 2

T8: Mex67ΔUBA L263A+M265A;Mtr2 (Saccharomyces cerevisiae;Saccharomyces …, UniProt Q99257;P34232 1-487;1-184, L263A;M265A|)
T8 sequence 1: T1 sequence 1 with L263A, M265A
T8 sequence 2: T1 sequence 2


What was measured:
Assay in all cases: fluorescence anisotropy; 20 mM Tris pH 8.0, 50 mM NaCl, 10 nM DY-547 RNA; temperature not stated
Mex67ΔUBA;Mtr2 = target: T1, Mex67ΔUBA;Mtr2; conditions: protein: recombinant;recombinant; tags: His6 removed by TEV;; copies: 1;1
[1] = target: T2, Mex67ΔUBA L263Y+M265Y;Mtr2; conditions: protein: recombinant;recombinant; tags: His6 removed by TEV;; copies: 1;1
Mex67RRM-LRR = target: T3, Mex67RRM-LRR; conditions: protein: recombinant; tags: His6 removed by TEV
Mex67LRR-NTF2L;Mtr2 = target: T4, Mex67LRR-NTF2L;Mtr2; conditions: protein: recombinant;recombinant; tags: His6 removed by TEV;; copies: 1;1
[2] = target: T5, Mex67ΔUBA L263D+M265D;Mtr2; conditions: protein: recombinant;recombinant; tags: His6 removed by TEV;; copies: 1;1
Mex67NTF2L;Mtr2 = target: T6, Mex67NTF2L;Mtr2; conditions: protein: recombinant;recombinant; tags: His6 removed by TEV;; copies: 1;1
[3] = target: T7, Mex67 (full length):Mtr2;Mtr2; conditions: protein: recombinant;recombinant, tags: His6 removed by TEV;, copies: 1;1
[4] = target: T8, Mex67ΔUBA L263A+M265A;Mtr2; conditions: protein: recombinant;recombinant; tags: His6 removed by TEV;; copies: 1;1

Row | Binder | Kd (Mex67ΔUBA;Mtr2) [nM] | Kd [1] [nM] | Kd (Mex67RRM-LRR) [nM] | Kd (Mex67LRR-NTF2L;Mtr2) [nM] | Kd [2] [nM] | Kd (Mex67NTF2L;Mtr2) [nM] | Kd [3] [nM] | Kd [4] [nM] | binding result ([3]; may form higher order structure)
1 | AAAAAAAAAAAAAAA (ssRNA) [A15] | 310 | 420 | 12000 | 340 | 820 | 860 | 260 | 640 | –
2 | GGGGGGGGGGGGGGG (ssRNA) [G15] | – | – | – | – | – | – | – | – | binds
